Test results from US20240124607A1 (Merck Sharp & Dohme, published 2024).
Numbering of substitutions follows the chain as printed. Values belong to the binder of their own block, whether it stands above or below them.

Key:
[1] = target: T1, human CEACAM5 on cells (human, UniProt P06731 35-685); test: flow cytometry, SK-CO-1 cells
T1 construct: tumour cell lines with endogenous CEACAM5, or B16F10 engineered to express hCEACAM5; also called CEACAM5 on MKN-45, HPAF-II, SK-CO-1, LoVo, BxPC-3, Kato-III, LS-174T, ZR-75-30; hCEACAM5-B16F10
T1 sequence: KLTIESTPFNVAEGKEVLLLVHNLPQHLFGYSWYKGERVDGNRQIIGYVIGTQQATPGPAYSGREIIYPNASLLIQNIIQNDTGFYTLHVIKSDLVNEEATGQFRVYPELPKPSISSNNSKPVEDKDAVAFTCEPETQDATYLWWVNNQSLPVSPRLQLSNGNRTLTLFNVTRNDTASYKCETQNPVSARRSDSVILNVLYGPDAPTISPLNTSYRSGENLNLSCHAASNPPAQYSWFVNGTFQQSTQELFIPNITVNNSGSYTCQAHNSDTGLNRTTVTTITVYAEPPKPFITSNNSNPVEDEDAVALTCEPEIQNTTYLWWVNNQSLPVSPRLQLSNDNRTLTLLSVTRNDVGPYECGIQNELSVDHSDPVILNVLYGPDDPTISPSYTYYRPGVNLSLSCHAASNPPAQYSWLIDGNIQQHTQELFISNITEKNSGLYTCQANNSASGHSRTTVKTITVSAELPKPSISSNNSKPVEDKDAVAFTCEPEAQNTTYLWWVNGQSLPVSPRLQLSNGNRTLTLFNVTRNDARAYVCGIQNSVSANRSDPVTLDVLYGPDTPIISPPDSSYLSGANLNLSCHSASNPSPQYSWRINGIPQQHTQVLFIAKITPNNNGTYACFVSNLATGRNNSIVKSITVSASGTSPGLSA

[2] = target: T1, human CEACAM5 on cells; test: flow cytometry, Kato-III cells
[3] = target: T1, human CEACAM5 on cells; test: flow cytometry, BxPC-3 cells
[4] = target: T1, human CEACAM5 on cells; test: flow cytometry, LoVo cells
[5] = target: T1, human CEACAM5 on cells; test: flow cytometry, MKN-45 cells
[6] = target: T2, soluble mouse Fc-human NKG2D dimer (human, UniProt P26718 78-216, limits assumed); test: SPR, mAb captured by anti-hFc, 37C
T2 construct: also called NKG2D-mFc; human NKG2D fused to a mouse Fc
T2 sequence (looked up): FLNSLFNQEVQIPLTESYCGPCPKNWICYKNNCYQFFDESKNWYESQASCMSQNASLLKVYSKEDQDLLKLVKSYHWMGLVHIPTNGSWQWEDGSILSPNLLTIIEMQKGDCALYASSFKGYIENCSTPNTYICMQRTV
Protocol: Kinetics and affinity of various NKG2D-binding domains were assessed by surface plasmon resonance using Biacore 8K instrument (GE Healthcare). Anti-human Fe antibody was immobilized on a CM5 chip using standard amine coupling chemistry. Human monoclonal antibodies containing various NKG2D-binding domains were captured on the anti-human Fc chip at a density of approximately 100 RU. […] Surfaces were regenerated between cycles by quick injection of 10 mM glycine, pH 1.8. To obtain kinetic rate constants, double-referenced data were fit to a 1:1 interaction model using Biacore 8K Evaluation software (GE Healthcare). The equilibrium binding constant KD was determined by the ratio of dissociation constant kd and association constant kₐ (kd/kₐ).

[7] = target: T3, mouse NKG2D-Fc (mouse, UniProt O54709 90-232); test: ELISA on plate-adsorbed recombinant mouse NKG2D-Fc, anti-human kappa-HRP, OD 450 nm
T3 construct: extracellular domain; also called Mouse NKG2D-Fc-biotin
T3 sequence (looked up): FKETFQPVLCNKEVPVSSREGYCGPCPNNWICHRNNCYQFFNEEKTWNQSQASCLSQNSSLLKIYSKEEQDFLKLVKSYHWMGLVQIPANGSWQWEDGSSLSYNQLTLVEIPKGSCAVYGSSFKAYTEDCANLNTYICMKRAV
Source text: (§1) The nucleic acid sequences of human, mouse or cynomolgus NKG2D ectodomains were fused with nucleic acid sequences encoding human IgG1 Fc domains and introduced into mammalian cells to be expressed. After purification, NKG2D-Fc fusion proteins were adsorbed to wells of microplates. After blocking the wells with bovine serum albumin to prevent non-specific binding, NKG2D-binding domains were titrated and added to the wells pre-adsorbed with NKG2D-Fc fusion proteins. Primary antibody binding was detected using a secondary antibody which was conjugated to horseradish peroxidase and specifically recognizes a human kappa light chain to avoid Fc cross-reactivity. 3,3′,5,5′-Tetramethylbenzidine (TMB), a substrate for horseradish peroxidase, was added to the wells to visualize the binding signal, whose absorbance was measured at 450 nm and corrected at […]. An NKG2D-binding domain clone, an isotype control or a positive control (comprising heavy chain and light chain variable domains selected from the group consisting of: SEQ ID NOs: 526-529, or anti-mouse NKG2D clones MI-6 and CX-5 available at eBioscience) was added to each well.

[8] = target: T4, cynomolgus NKG2D-Fc (cynomolgus monkey, UniProt P61252 73-216); test: ELISA on plate-adsorbed recombinant cynomolgus NKG2D-Fc, anti-human kappa-HRP, OD 450 nm
T4 construct: extracellular domain
T4 sequence (looked up): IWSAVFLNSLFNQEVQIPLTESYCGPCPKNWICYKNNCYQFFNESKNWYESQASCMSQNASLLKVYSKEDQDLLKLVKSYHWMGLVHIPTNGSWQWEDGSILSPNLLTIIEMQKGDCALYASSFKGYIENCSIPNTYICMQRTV
Source text: as §1

[9] = target: T5, human NKG2D-Fc (human, UniProt P26718 73-216); test: ELISA on plate-adsorbed recombinant human NKG2D-Fc, anti-human kappa-HRP, OD 450 nm
T5 construct: extracellular domain; also called recombinant human NKG2D-Fc; NKG2D-Fc-biotin
T5 sequence (looked up): T4 sequence (looked up) with N43D, I133T
Source text: as §1

[10] = target: T5, human NKG2D-Fc; test: competition ELISA on plate-adsorbed human NKG2D-Fc; blocked ligand ULBP-6-His-biotin
Protocol: Recombinant human NKG2D-Fc proteins were adsorbed to wells of a microplate, and the wells were blocked with bovine serum albumin to reduce non-specific binding. A saturating concentration of ULBP-6-His-biotin was added to the wells, followed by addition of the NKG2D-binding domain clones. After a 2-hour incubation, wells were washed and ULBP-6-His-biotin that remained bound to the NKG2D-Fc coated wells was detected by streptavidin-conjugated to horseradish peroxidase and TMB substrate. Absorbance was measured at 450 nm and corrected at […]. After subtracting background, specific binding of NKG2D-binding domains to the NKG2D-Fc proteins was calculated from the percentage of ULBP-6-His-biotin that was blocked from binding to the NKG2D-Fc proteins in wells.

EC50 [1]: 5.84 nM | Max FOB [1]: 14 fold over background | EC50 [2]: 1.16 nM | Max FOB [2]: 3 fold over background | EC50 [3]: 3.37 nM | Max FOB [3]: 5 fold over background | EC50 [4]: 2.71 nM | Max FOB [4]: 7 fold over background | EC50 [5]: 4.69 nM | Max FOB [5]: 23 fold over background
B1: AB0755 (antibody, V domains shown)
VH: QVQLVQSGAEVKKPGASVKVSCKASGYTFTAYTIHWVRQAPGQGLEWMGYINPSSGYTEYNQKFKDRTTLTADTSIPTAYMELSRLRSDDTAVYYCTREGGLLWFDYWGQGTLVTVSS
VL: DIVMTQSPDSLAVSLGERATINCKSSHSLLYGNFQNNYLAWYQQKPGQPPKLLIYWASTRESGVPDRFSGSGSGTDFTLTISSLQAEDVAVYYCQQYYSYPYTFGGGTKLEIK
notes: the scFv entries carry the stabilising cysteines, which the mAb may lack; also called mAb corresponding to AB0264

Kd [6]: 10.1 nM | koff [6]: 0.00299 s⁻¹ | kon [6]: 295000 M⁻¹ s⁻¹
B2: ADI-27744 (A44) (antibody, V domains shown)
VH: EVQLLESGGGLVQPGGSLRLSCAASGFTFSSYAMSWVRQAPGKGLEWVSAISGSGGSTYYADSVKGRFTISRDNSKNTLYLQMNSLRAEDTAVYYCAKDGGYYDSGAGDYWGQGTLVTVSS
VL: DIQMTQSPSSVSASVGDRVTITCRASQGIDSWLAWYQQKPGKAPKLLIYAASSLQSGVPSRFSGSGSGTDFTLTISSLQPEDFATYYCQQGVSYPRTFGGGTKVEIK

Kd [6]: 12.4 nM | koff [6]: 0.00489 s⁻¹ | kon [6]: 395000 M⁻¹ s⁻¹
B3: ADI-27749 (A49) (antibody, V domains shown)
VH: EVQLVESGGGLVKPGGSLRLSCAASGFTFSSYSMNWVRQAPGKGLEWVSSISSSSSYIYYADSVKGRFTISRDNAKNSLYLQMNSLRAEDTAVYYCARGAPMGAAAGWFDPWGQGTLVTVSS
VL: B2 VL with D30S, Y94F

Kd [6]: 50.7 nM | koff [6]: 0.0225 s⁻¹ | kon [6]: 443000 M⁻¹ s⁻¹
B4: ADI-29379 (E79) (antibody, V domains shown)
VH: QVQLVQSGAEVKKPGASVKVSCKASGYTFTSYYMHWVRQAPGQGLEWMGIINPSGGSTSYAQKFQGRVTMTRDTSTSTVYMELSSLRSEDTAVYYCARGAPNYGDTTHDYYYMDVWGKGTTVTVSS
VL: EIVMTQSPATLSVSPGERATLSCRASQSVSSNLAWYQQKPGQAPRLLIYGASTRATGIPARFSGSGSGTEFTLTISSLQSEDFAVYYCQQYDDWPFTFGGGTKVEIK

Kd [6]: 58.5 nM | koff [6]: 0.0487 s⁻¹ | kon [6]: 832000 M⁻¹ s⁻¹
B5: ADI-29378 (E78) (antibody, V domains shown)
VH: QVQLVQSGAEVKKPGASVKVSCKASGYTFTSYYMHWVRQAPGQGLEWMGIINPSGGSTSYAQKFQGRVTMTRDTSTSTVYMELSSLRSEDTAVYYCAREGAGFAYGMDYYYMDVWGKGTTVTVSS
VL: B4 VL with M4L, V13L, N32Y, G50D, T53N, E70D, Q79E, S80P, Y91S, D93N

binding result [7]: binds | binding result [8]: binds | EC50 (read off the curve) [9]: ~0.6 nM
B6: ADI-27705 (antibody, V domains shown)
VH: QVQLQQWGAGLLKPSETLSLTCAVYGGSFSGYYWSWIRQPPGKGLEWIGEIDHSGSTNYNPSLKSRVTISVDTSKNQFSLKLSSVTAADTAVYYCARARGPWSFDPWGQGTLVTVSS
VL: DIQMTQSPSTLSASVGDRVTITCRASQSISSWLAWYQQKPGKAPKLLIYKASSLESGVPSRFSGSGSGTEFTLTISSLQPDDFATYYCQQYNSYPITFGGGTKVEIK
notes: named as a single clone only on the drawing sheets

binding result [7]: binds | binding result [8]: binds | binding result [9]: binds
B7: ADI-27741 (antibody, V domains shown)
VH: B6 VH
VL: DIQMTQSPSTLSASVGDRVTITCRASQSIGSWLAWYQQKPGKAPKLLIYKASSLESGVPSRFSGSGSGTEFTLTISSLQPDDFATYYCQQSNSYYTFGGGTKVEIK
notes: as for B6

EC50 (read off the curve) [7]: ~8 nM | EC50 (read off the curve) [8]: ~8 nM | EC50 (read off the curve) [9]: ~10 nM
B8: ADI-27724 (antibody, V domains shown)
VH: B6 VH
VL: not shown
notes: as for B6

binding result [7]: binds | binding result [8]: binds | binding result [9]: binds
B9: ADI-28226 (antibody, V domains shown)
VH: B6 VH
VL: DIQMTQSPSTLSASVGDRVTITCRASQSISSWLAWYQQKPGKAPKLLIYKASSLESGVPSRFSGSGSGTEFTLTISSLQPDDFATYYCQQYGSFPITFGGGTKVEIK
notes: named as a single clone only on the drawing sheets; also called C26

IC50 (read off the curve) [10]: ~6 nM | EC50 (read off the curve) [7]: ~0.2 nM | EC50 (read off the curve) [8]: ~0.3 nM | EC50 (read off the curve) [9]: ~0.3 nM
B10: ADI-27740 (antibody, V domains shown)
VH: B6 VH
VL: B7 VL with S91Y, N92H, Y94F
notes: named as a single clone only on the drawing sheets; also called A40
